Experimental data as given in the domain aggregation screens of Martell et al. (2025).

Experiment: soluble fraction after stress (log2 fold change); higher = more stays soluble; pooled small domains, quantitative proteomics
Conditions: stress: 50 degC
How it was run: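 The measure of aggregation propensity here is the base-two logarithm of the fold change in the soluble amount of each protein after stress. A higher value means more of that protein stays in solution. Stress was applied at 50°C to pooled libraries of small protein domains, read out by high-throughput quantitative proteomics.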

Row | Sequence | soluble fraction (log2)
1 | HMKTPIEFGSVYNDPVRYVIGMSIKSAESINQAIYDMMKIFGDENNMNKFDSLPDEQAVLDMVNSF | 0.0157
2 | HMKITIDSVERDETFRLIWGTGWKPKNKIQELAAIQAKKNGLGRMNEVAGLAAWRGIWQQVAEQVAQEVL | -1.04
3 | HMDTIYPFNPNFIDDYKGYVLGLNTNEIDRLLKYRSKGNWINSAEDFKKVTGIDDALLNKLSKSFKFPDWL | -1.44
4 | HMNEYLPEAVQKLLEVMEYDIPYTSNELMERLGLKAKEGFRRNYLHPAMEMKLIQMTIPDKPNSRNQRYLR | -2.11
5 | HMAENMNAALRVSSLINQIGTVNAKAKDRIESARKAYDALSEAQKAYVANLTTLETAETSLSKL | 0.179
6 | HMKTSTGSAMYLTLDLAEKYAGQAFTLVHKKADGTFEYLYATADVDGKVKFGPVYELSPFMLVKGQL | -0.291
7 | HMKTLKHYFASIAHEFGREEAELMLLSVFKTPFEQRLMLFMKDPALTEAQVQQLDNLVRQRKQGVPLPYIL | -0.22
8 | HMQQTAEDWKNKGDSLTAQSEYVEAIAAYDEAIRLDPNYAPAWSNKGNALKNLGEYYKAIQAYDEAIRL | 0.198
9 | HMLAQVSDEGPIRAMVEAVMARSTQQLEDYKNGKVKLRQYFFGEVMKAAKGKANPTVINKLLDEMLPETL | 0.255
10 | HMAGTGKVNTGVANVRSGPGTNYEISGKIYADTEVSILETSNGWYKIKFGNLTGWMSGTVLDIK | -0.138
11 | HMRILGIDPGTRITGYGIIDIEGNRLRHVDNGIIKTRSSDALPLRLKVIYDGLTAVLKQYSPQAV | 0.0465
12 | HMADLKVGFVHRAGSVLERELDDVLEALEMYRSALAIDPSHKPSLDALTRISQLADYREQAAEILEPLPR | -0.576
13 | HMDILPRMVASEMRAVGVPPERMTREEKGTVIRNLMNAGIHQMKGAVVEIARQLHLSEPTVYRYIKREKG | -0.327
14 | HMKVRDTQYIIEAAISKNVIRKSKNIYYYGTDIIGRSLEDAIASLNDKKNQDIKMTILQEIES | -0.493
15 | HMELMKPPGYWQSLENAIYESKKVIKEHGFDTLPSSNKLRELDYHGLSRAISVHHSGFPNFREIMNQELGI | 0.172
16 | HMRGGWESLTDREREIAVLAAEGHSNRTIASTLFISDRTVQSHVSRALRALGVDSRTGIPSLVTTATR | -0.0688
17 | HMSSLTPRETEVLSRMAQGDANTSIAERLVITEKAVQKHINAIFAKLGLAEEPTSARRVLAVLAFLR | -0.512
18 | HMGVRLAPEVDRIPYGQMHPNLKKVKDLYEASYKAYVQALSSGNQALAKEKLEEFQSTKARYQRALSAYT | 0.189
19 | HMRLIALPSVTDISIRQAEATLMSIGIKVSSIQYAPSEYKDLVLEVKYRGQSIIQGAKIPEGSSVVLVAGN | -1.56
20 | HMRTLKDSTEYLIRSMLLRGEMKVGEIYSANALAKELNISNSPVREAMMSLVDRGLLENVRNRGFRVV | -1.44
21 | HMGPTLTDEEEVVLNLLEKNHPVLLSELKENAGLSNKKWDKAIKGLSAHKLAKVTKTDDGLFVHLS | 0.0395
22 | HMATHWHITPNPNNGKFLISGLMQDDSFHLMDASGQWLRQLRTVNQELDLDLQPGVYFLKDNSGSVMKFVV | -0.98
23 | HMGPLTMGQRIVRLRTQAGLSQDALAEQLGVSRQSVSKWETDGSVPDLDRLVKLSKVFGVTLDELVKG | -0.024

Row | Sequence | soluble fraction (log2)
24 | HMTVKKEIAKVKPTPLGWLRVRETPSLNGAEITKVNTGESYDVLDKETGWIKIKVSETVEGWVSDAYIELS | 0.236
25 | HMSERVVVPDLTGKDLVAAQSELREISLAGREEGPGDKVRRQFPVAGVKVPKDTVVILYTED | 0.125
26 | HMGGEPVSARVPDTLHGARLDATAAALFPDFSRSRLAEWIKAGRLRRNDQPAKPRDKVAVDDHLLLIPEY | 0.0696
27 | HMAGPGAEVVDRLIAVLTGERPATAADQVLLSILKGLGIGGVVLPSERTGLGWSGLYQRVKEITDMN | -1.29
28 | HMEKLIRIKRLIKQLNEYRDSYYNEARPVVSDAAYDKLFDELSELEKETGVVYANSPTQTVG | -0.149
29 | HMNNLKTKELSKIGYTNDKARSLVISIIPKHFKYHSKSEIIELLTNIKNKPEDYVSDEILGKIAETFMEKI | -0.215
30 | HMTSESWAEKSRSLAAAGLIVMGRDAQLKIEGLTNLDPLIEAATASSTRLLTGQTIDELLTIVP | -0.265
31 | HMKELVAGQTVRVHHSIGFGQTGTVTALNSLKTTLPNGLRTNTASILFQNNEKVVLPISNFDIIES | -0.139
32 | HMALQDKYAELLTAANTMGVTNLAVAEKDGTLHVSGTAKSTADYDSLWALYDKIDPNMASGDLMMNI | 0.0408
33 | HMKTKTFSPGEIVKIQTRDKSWQGTILESHDPEIILLKLTTGYNIGIRENEIINAKVIEKSKKDVKDAE | 0.183
34 | HMSADDSDDRKGIDAWLTQLLANGSVKATEVYSAADAAGYSKDQAKRAKRRLAIEAVREAMDGPWFWRLD | -0.616
35 | HMTVSIGSVIARERRLRGDTQQELAERLGVSKAAVSKWEVGQSIPDVTLLPRIAAYFSLTLDEL | -2.18
36 | HMIAASPVGGIDRVLELLDARGQRVAWIEASGTEGGQRLRLGWIDAQGAERHGAWVPWSADDLLLYA | -0.387
37 | HMYNKKAYVNTNSDFLNVRSEASTESSVVDKLARGTEVNIVGNIQNGFYPIVLNEKNAWVSSDWISFEKPT | 0.227
38 | HMYLSNPTYRGDSLVDALTQIGVDASFASRRDLARKNGIENYTGSAKQNLELLQLLREGRLR | 0.374
39 | HMSEEVKSQPISILDLSTRASNGLKNEGIETIGELVKYSEDELLGLDKFGQNSLKEIKKKLEEIGLTLKEH | -0.0419
40 | HMGPLDIAQLKSDFLGGDAQLARRAWDQLATKAGDEGRDFLISSLGSSDPQIRNRVALGIHES | 0.0489
41 | HMTPFLVRVDISDLNIRTGAGTNYSRTGQYTGKGIFTILEVKSGQGSDAGWGRLKSGAGWISLDYTTR | -2.82
42 | HMGQDGFIGLEAAKKLVLQKLGLTSAEFIKAELDAEDRKYELELIVDGIEYDFDIDAYSGAFLKQEQETV | -0.215
43 | HMGDTISVPAVRTLAYNKAMDILNAEGLKGIVADSVYDNHTAPGTVIEQNPKAGTIVKEGREVFLTIHA | 0.103
44 | HMVEYIENINLSEKQKFIAHEILKEIRGRAIFLRDVGLDYLNLSRKAGTLSGGEAQRIRLATQIGSA | 0.226
45 | HMVDSTDLIPLLIKVSREKQGNKKLNWGEWLKIPENIYLKQINENIARKVFEDTNDLIDEAVNYINRKRRN | -0.602
46 | HMLSNKIEQLRKEKGYTFAKLSELSGISTGRLSDLATGKRNNPTMDTLIKLADALDVTLDELVGR | 0.14

Row | Sequence | soluble fraction (log2)
47 | HMKVLNVLESEIVRLFKQGQQKDNIRDNIYKTHGQHYNNKKSFNVVFGRKWNSLLEQGFLES | -0.595
48 | HMLDQAVPVFETPKYAVSYIQNRLVEMKAASPEEAASRFYESISESERRGLFEALLIKEAEES | -0.00154
49 | HMGKKGPELSENEKSIFSILSKSGSMDLTTLKEASGLSNKQWDKGIKGLGKHGLTKVIKTEDALLVEVV | 0.0505
50 | HMNATPDMERYWASSAAEGRALEPLYAVSRGDGGEPLWWSPSRAQAERMAREEGGPLTVDRIDPP | -0.0411
51 | HMERFRQVNAGMTRDDIYQLLGKPTEKTPFPLKNEEVWSWRHQADGQTVALFNIHLDPDGRVTTTSQSMDL | 0.021
52 | HMGSYIGEAKAKEIALSHAGVSASQATFVRSQFEYDDGRAVYDVDFWSGNKEYDYEIDAKSGTIVSYDFD | -0.398
53 | HMTRETTQAWWEARQTLPSGEQRSAASLSQEASHVRRFYRWAMQQGLTDRNPADWLPDVRQK | -0.232
54 | HMTYSSESVRYRIKSLIDNETIDEILSDDKIVNILKSQGIDVARRTVAKYREAMGLASSIQRRREKKSA | -0.375
55 | HMEAYMVPNVKNKTLNEAQQALSNQKLKGLVIDSSYVKGVPDGMVLDQNPAGGARVKEGRTIYLTVTTS | 0.318
56 | HMENTSPMTPEQSKALMAYLTKRHGDSREAYLSELSQFFGRPLSSSRELTKADVSEFLNAIN | 0.161
57 | HMQQLIEFSVTKGHPWINKKIMDLNLPENQLILTIQREGHVVSAEGKTIILENDRITISTDDR | -0.0156
58 | HMSSGKTGTITLQPKQTVYGITKQYKISEADLRKLNPQLDSNLKIGDKITLPLDNIQRYSDSSSNVAQT | 0.211
59 | HMSGTYIVTVQANTLDIYKSMTSNDTIGKANKGDVFQILEDMGGGYAKVSYNDVEGYISIKDGDTSIDEM | -0.23
60 | HMQYPSSLDSRAKQSLYDNLERNEILALALDNVIQSNKLDGWRDGGIKERKLRLAINNLLKNDEHTDNIME | -0.0155
61 | HMKNYYRILGLNIDAEYEEIKAAYRILAQRHHPDKGGAAAEFRLIQEAYDILSNPLTKRNYDADLLATLN | -0.521
62 | HMSMNGNMIHATVIWKGRYFLVKMFFPQLTKPKRAEVQAQIEKAYPGSRVASYHITDYKPGEQFLHV | -1.51
63 | HMKEETEMVTIPDVTGKPLTEAANLLREAKLDYLAESTGTSVTKQMPLPGAEVMVNTTVLLYTG | 0.156
64 | HMLPGLGPIERAQFMLQAIPGISPTRSAALIDKFGSIAGIAQASIKDIQTIEGIGKKTATTLYEVLNAG | -0.341
65 | HMENDGQFLRAEREKYGLTLTDIYEHTHIPIKKLKAYEMWEEEMPPRTRALLELYFDQVAFEYDS | -0.8
66 | HMFESQYIGKIATAITDISAFSGRLKIYDENWEARTLGEDAPEIKKGAKVKIVRHDDLTMFVEKK | -0.034
67 | HMNSVSIAPEMLNWVIAHIQMNSLPKQIVEHLTAWISGQKEPTFNQIEKVSRATGIPLGYFFLEQPPKE | -2.03
68 | HMKGLDAAVVDLFKSKGASIVFAGNRLSLSGEVADQATKDELLAKAKAILASLGASVSLDDKLMVKGAKAS | 0.0298
